Values joined by “and” are separate entries in the source; they are usually repeats but may differ in a detail not shown here. Equal values may be shown once.
Experiments:
α-tubulin polymerisation = test: α-tubulin immunostaining in TNBC and normal breast cells; assay type: cell-based; conditions: normal breast cells, 1 µM, 18 h
Experimental: FIGS. 8A and 8B: The effect of MMAE and LD5-me-vc-PABC-MMAE (LM) on α-tubulin polymerization. (A) MDA-MB-231 (TNBC cell model) and normal breast cells (HMEC and MCF-10A) were treated with free MMAE and LM at 1 μM and PBS (control) followed by immunostaining of α-tubulin with primary and secondary antibodies. The α-tubulin signals were detected by LEICA SPE2 confocal LSM. (B) The α-tubulin signal intensity was measured by Fiji J software in normal breast cells (HMEC and MCF-10A) and MDA-MB-231. ****p<0.0001 is the significance in the signal intensity in each cell line treated with PBS and LM in comparison to MMAE-treated cells. ####p<0.0001 is the significance of the α-tubulin signal intensity in MDA-MB-231 cells treated with LM in comparison to MCF-10A and HMEC cells. […] Statistical analysis was made in Prism by two-way ANOVA followed by Tukey's multiple comparisons test. Error bars are standard deviations (STDV), n=8 (3 independent repeats).
The intracellular effects of MMAE on α-tubulin polymerisation were examined using α-tubulin immunostaining in TNBC cells (MDA-MB-231) and normal breast cells (MCF-10A and HMEC) treated with MMAE and MMAE conjugated with LD5 (LD5-mc-vc-PABC-MMAE). TNBC cells and normal breast cells were fixed after incubating with […] of MMAE and LD5-mc-vc-PABC-MMAE for 18 h along with PBS as a control. […]

MDA-MB-231 = test: In vitro uptake in TNBC cells versus normal breast cells (confocal LSM); assay type: cell-based, human; conditions: 1 μM, 18 h; MDA-MB-231 compared to normal breast cells (MCF-10A and HMEC)
Experimental: FIGS. 7A and 7B: In vitro uptake study of LD5-me-vc-PABC-MMAE in TNBC cell line and normal breast cells. (A) MDA-MB-231 as a TNBC cell model, MCF-10A and HMEC as normal breast cells were treated with 1 μM of LD5-me-vc-PABC-MMAE (LM) for 18 h. LM was stained using monoclonal primary antibody specific for LHRH and secondary antibody conjugated with Rhodamine and detected by LEICA SPE2 confocal LSM. (B) The LM signal intensity was measured by Fiji J software in normal breast cells (HMEC and MCF-10A) and TNBC cell model (MDA-MB-231). […] The signal intensity in these cell lines were assessed by one-way ANOVA followed by Tukey's multiple comparisons test (****p<0.0001). Error bars are standard deviations (STDV), n=8 (3 independent repeats).
The uptake of LD5-me-vc-PABC-MMAE by TNBC cells was examined using the TNBC cell line (MDA-MB-231) which overexpresses LHRH-R. The uptake was compared with normal breast cells (LHRH-R negative control). LD5-me-vc-PABC-MMAE was incubated with […] for 18 h, and intracellular uptake of the conjugate was monitored using confocal LSM (FIG. 7A).
This was supported by quantitative comparisons of the intracellular uptake of LD5-mc-vc-PABC-MMAE in LHRH-R positive and negative cells (FIG. 7B).

female NOD/SCID mice [1] = test: Phase I: single-dose MTD in mice; assay type: in vivo; conditions: for Body Weight: individual animals
Experimental: LD5-(mc-vc-PABC)-MMAE was administered IV to groups of 3 female NOD/SCID mice (23±3 g). Animals received an initial dose of 3 mg/kg. If the animals survived for 72 hours, the dose for the next cohort was increased. If one or more animals died, the dose for the next cohort was decreased. The testing stopped when all animals survived at the upper bound, or when two or three dose levels had been tested or when the upper or lower bound had been reached. […] Body weights were recorded pre-dose and at 72 hours after treatment. The animals were observed and mortality noted daily after compound administration for 3 days. Gross necropsy was performed on all animals without tissue collection. […] No mortality and body weight changes were noted, signifying the dose level was tolerated (Tables 2 and 3). The dose at 10 mg/kg was then determined for the following repeat-dose MTD study (Phase II).

[2] = Phase II: repeat-dose MTD in mice; assay type: in vivo; conditions: mouse, in vivo; female NOD/SCID mice, IV; MTD not reached at 10 mg/kg
Experimental: (§1) LD-5-(mc-vc-PABC)-MMAE (10 mg/kg; determined by the results by Phase I) was administered IV once weekly on days 1 and 8 to groups of 3 female NOD/SCID mice (23±3 g). […] Body weights were recorded pre-dose and on days 1, 4, 8, 12 and 15. The animals were observed and mortality noted daily after first compound administration for 15 days. Gross necropsy was performed on all animals without tissue collection.
(§2) Therefore, the MTD was not reached at this dose. With the corresponding ADCs bearing MMAE the MTD has been considerably lower.

female NOD/SCID mice [3] = test: Phase II: repeat-dose MTD in mice; assay type: in vivo; conditions: for Body Weight: listed as LHRHD-(mc-vc-PABC)-MMAE, 10 mg/kg
Experimental: as §1, §2

female NOD/SCID mice [4] = test: Phase I: single-dose MTD in mice; assay type: in vivo; conditions: IV 10 mg/kg, 72 hr, individual animals, listed as LHRHD-(mc-vc-PABC)-MMAE

CCNC(=O)[C@@H]1CCCN1C(=O)[C@H](CCCNC(=N)N)NC(=O)[C@H](CC(C)C)NC(=O)[C@@H](CCCCNC1CC(=O)N(CCCCCC(=O)N[C@H](C(=O)N[C@@H](CCCNC(N)=O)C(=O)Nc2ccc(COC(=O)N(C)[C@H](C(=O)N[C@H](C(=O)N(C)[C@@H]([C@@H](C)CC)[C@@H](CC(=O)N3CCC[C@H]3[C@H](OC)[C@@H](C)C(=O)N[C@H](C)[C@@H](O)c3ccccc3)OC)C(C)C)C(C)C)cc2)C(C)C)C1=O)NC(=O)[C@H](Cc1ccc(O)cc1)NC(=O)[C@H](CO)NC(=O)[C@H](Cc1c[nH]c2ccccc12)NC(=O)[C@H](Cc1c[nH]cn1)NC(=O)[C@@H]1CCC(=O)N1 (stereo partly drawn) [LD5-mc-vc-PABC-MMAE]
22 g (2×) and 21 g: Body Weight (female NOD/SCID mice [3]; IV 10 mg/kg on days 1 and 8, Day 1, individual animals)
No significant adverse effects: adverse effects (acute toxic symptoms, autonomic effects) (female NOD/SCID mice [1]; 3 and 10 mg/kg IV, 15 minutes, 1 and 2 hours)
20 g: Body Weight (female NOD/SCID mice [1]; IV 10 mg/kg, time 0 (pre-dose))
25 g (2×) and 24 g: Body Weight (female NOD/SCID mice [3]; IV 10 mg/kg on days 1 and 8, Day 15, individual animals)
significantly higher: α-tubulin signal compared to MMAE treatment (α-tubulin polymerisation)
23 g (2×) and 22 g: Body Weight (female NOD/SCID mice [3]; IV 10 mg/kg on days 1 and 8, Day 4, individual animals) | Body Weight (female NOD/SCID mice [3]; IV 10 mg/kg on days 1 and 8, Day 8, individual animals)
No abnormality was found: gross necropsy (female NOD/SCID mice [3]; both phases)
24 g (2×) and 23 g: Body Weight (female NOD/SCID mice [3]; IV 10 mg/kg on days 1 and 8, Day 12, individual animals)
0/3: Mortality (death/test) (female NOD/SCID mice [1]; IV 3 mg/kg, 15 min) | Mortality (death/test) (female NOD/SCID mice [1]; IV 3 mg/kg, 1 hr) | Mortality (death/test) (female NOD/SCID mice [1]; IV 3 mg/kg, 2 hr) | Mortality (death/test) (female NOD/SCID mice [1]; IV 3 mg/kg, 24 hr) | Mortality (death/test) (female NOD/SCID mice [1]; IV 3 mg/kg, 48 hr) | Mortality (death/test) (female NOD/SCID mice [1]; IV 3 mg/kg, 72 hr) | Mortality (death/test) (female NOD/SCID mice [1]; IV 10 mg/kg, 15 min) | Mortality (death/test) (female NOD/SCID mice [1]; IV 10 mg/kg, 1 hr) | Mortality (death/test) (female NOD/SCID mice [1]; IV 10 mg/kg, 2 hr) | Mortality (death/test) (female NOD/SCID mice [1]; IV 10 mg/kg, 24 hr) | Mortality (death/test) (female NOD/SCID mice [1]; IV 10 mg/kg, 48 hr) | Mortality (death/test) (female NOD/SCID mice [1]; IV 10 mg/kg, 72 hr) | Mortality (death/test) (female NOD/SCID mice [3]; IV 10 mg/kg on days 1 and 8, Day 1) | Mortality (death/test) (female NOD/SCID mice [3]; IV 10 mg/kg on days 1 and 8, Day 2) | Mortality (death/test) (female NOD/SCID mice [3]; IV 10 mg/kg on days 1 and 8, Day 3) | Mortality (death/test) (female NOD/SCID mice [3]; IV 10 mg/kg on days 1 and 8, Day 4) | Mortality (death/test) (female NOD/SCID mice [3]; IV 10 mg/kg on days 1 and 8, Day 5) | Mortality (death/test) (female NOD/SCID mice [3]; IV 10 mg/kg on days 1 and 8, Day 6) | Mortality (death/test) (female NOD/SCID mice [3]; IV 10 mg/kg on days 1 and 8, Day 7) | Mortality (death/test) (female NOD/SCID mice [3]; IV 10 mg/kg on days 1 and 8, Day 8) | Mortality (death/test) (female NOD/SCID mice [3]; IV 10 mg/kg on days 1 and 8, Day 9) | Mortality (death/test) (female NOD/SCID mice [3]; IV 10 mg/kg on days 1 and 8, Day 10) | Mortality (death/test) (female NOD/SCID mice [3]; IV 10 mg/kg on days 1 and 8, Day 11) | Mortality (death/test) (female NOD/SCID mice [3]; IV 10 mg/kg on days 1 and 8, Day 12) | Mortality (death/test) (female NOD/SCID mice [3]; IV 10 mg/kg on days 1 and 8, Day 13) | Mortality (death/test) (female NOD/SCID mice [3]; IV 10 mg/kg on days 1 and 8, Day 14) | Mortality (death/test) (female NOD/SCID mice [3]; IV 10 mg/kg on days 1 and 8, Day 15)
21 g: Body Weight (female NOD/SCID mice [1]; IV 3 mg/kg, 72 hr) | Body Weight (female NOD/SCID mice [1]; IV 3 mg/kg, time 0 (pre-dose))
significantly higher uptake: intracellular uptake (MDA-MB-231)
> 10 mg/kg: MTD [2]
No marked adverse effects: adverse effects (acute toxic symptoms, autonomic effects) (female NOD/SCID mice [3]; 10 mg/kg IV, after first and second administrations on Day 1 and 8)
21 g and 20 g (2×): Body Weight (female NOD/SCID mice [4])

Source: patent US20220211860A1, “PEPTIDE DERIVATIVES AND CONJUGATES THEREOF FOR TREATING CANCER” (priority 2019, published 2022)
